Biological target: T1, His6-RpoA (purified) (UniProt P0A7Z7 1-329)
T1 construct: also called RNA polymerase alpha subunit
Test: pull-down
Details: both partners purified

T1 sequence (P0A7Z7 whole entry): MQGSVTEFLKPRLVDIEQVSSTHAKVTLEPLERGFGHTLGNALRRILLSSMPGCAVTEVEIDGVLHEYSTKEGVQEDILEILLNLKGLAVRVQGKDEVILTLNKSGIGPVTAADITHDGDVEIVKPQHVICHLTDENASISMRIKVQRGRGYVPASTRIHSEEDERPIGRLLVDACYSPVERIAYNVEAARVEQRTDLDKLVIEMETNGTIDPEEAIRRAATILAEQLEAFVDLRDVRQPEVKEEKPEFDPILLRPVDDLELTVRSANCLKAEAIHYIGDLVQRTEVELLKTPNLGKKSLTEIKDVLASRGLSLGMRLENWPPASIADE

B1: MBP-InvF (InvF fused to the maltose-binding protein) (natural protein)
chain: MSFSESRHNENCLIQEGALLFCEQAVVAPVSGDLVFRPLKIEVLSKLLAFIDGAGLVDTTYAESDKWVLLSPEFRAIWQDRKRCEYWFLQQIITPSPAFNKVLALLRKSESYWLVGYLLAQSTSGNTMRMLGEDYGVSYTHFRRLCSRALGGKAKSELRNWRMAQSLLNSVEGHENITQLAVNHGYSSPSHFSSEIKELIGVSPRKLSNIIQLADK
notes: also called Transcriptional regulator InvF
Question: Does B1 bind?
Answer: Result: binds

Reference: paper PMC10761746 (Scientific Reports, 2024)
